Target: VEGF165 (UniProt P15692-4 27-191)
Assay: EMSA; annealed; HEPES/Na+; 1:1.3; almost fully bound; 25 mM HEPES, 150 mM NaCl, pH 7.4; 30 pmol oligo + 40 pmol protein in 9 uL, 30 min at 4 C; 7% native PAGE in TAE 1X pH 7.8 at r.t.
Details: protein: recombinant; chain copies: 2; G4; 2 copies of strand covalently linked 3'-3'

VEGF165, sequence (P15692 other isoform, or with tags, fused parts or gaps): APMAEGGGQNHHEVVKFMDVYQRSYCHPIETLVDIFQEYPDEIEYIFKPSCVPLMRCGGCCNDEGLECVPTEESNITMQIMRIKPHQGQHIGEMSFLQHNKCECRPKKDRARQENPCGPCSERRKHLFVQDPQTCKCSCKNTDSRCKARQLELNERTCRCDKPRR

B1: bisV7t1TEG2D (structured_DNA)
DNA: TGTGGGGGTGGACGGGCCGGGTAGA
modifications: two V7t1 copies joined 3' to 3' by TEG/symmetric doubler linker (C25H53N2O24P5), inverted polarity
B1: binds.
